The text below walks through data of US8546535 (ESPERANCE PHARMACEUTICALS, dated 2013).

Several values for one entry are separate records, joined by “and”; a condition that tells them apart may be missing. Equal values may be shown once.

The target in test [1] is luteinizing hormone-releasing hormone (LHRH) receptor (human) (UniProt P30968). In words: cell-based or functional assay.
Test [2] deals with T1, luteinizing hormone-releasing hormone (LHRH) receptor (human, UniProt P30968 1-328).
T1 sequence (looked up): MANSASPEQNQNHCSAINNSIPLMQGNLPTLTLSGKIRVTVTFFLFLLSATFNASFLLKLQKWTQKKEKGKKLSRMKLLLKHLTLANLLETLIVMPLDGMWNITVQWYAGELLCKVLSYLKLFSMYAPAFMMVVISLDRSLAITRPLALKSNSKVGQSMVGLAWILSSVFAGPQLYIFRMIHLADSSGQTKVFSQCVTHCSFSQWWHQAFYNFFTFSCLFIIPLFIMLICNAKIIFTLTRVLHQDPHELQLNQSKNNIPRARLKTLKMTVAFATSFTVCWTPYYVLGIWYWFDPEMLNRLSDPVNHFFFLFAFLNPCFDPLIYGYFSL
In words: cell-based or functional assay.

Molecule LHRH-Phor21 (peptide) showed an IC50, cytotoxicity in TM4 cells (no LHRH receptors; receptor-negative control) in test [1] of 10.9 µM.

B1: Phor18-LHRH (338613) (peptide)
peptide: KFAKFAKKFAKFAKKFAKQHWSYGLRPG
As for B1, in test [2], the “IC50, cytotoxicity (MTT) in MCF-7 cells” value was 3.4 µM and 1.8 µM; the “IC50, cytotoxicity (MTT) in MDA-MB-435S cells, 0.5 hour incubation” value amounted to 1.2 µM; the “IC50, cytotoxicity (MTT) in MDA-MB-435S cells, 1 hour incubation” value amounted to 0.6 µM; the “IC50, cytotoxicity (MTT) in OVCAR-3 cells, increasing incubation time (1st of 7 values)” value is 6.7 µM. Besides, in test [2], the “IC50, cytotoxicity (MTT) in OVCAR-3 cells, increasing incubation time (2nd of 7 values)” value amounted to 5.6 µM; the “IC50, cytotoxicity (MTT) in OVCAR-3 cells, increasing incubation time (3rd of 7 values)” value worked out at 5.3 µM; the “IC50, cytotoxicity (MTT) in OVCAR-3 cells, increasing incubation time (4th of 7 values)” value worked out at 1.6 µM; the “IC50, cytotoxicity (MTT) in OVCAR-3 cells, increasing incubation time (5th of 7 values)” value turned out to be 1.5 µM. Also, in test [2], the “IC50, cytotoxicity (MTT) in OVCAR-3 cells, increasing incubation time (6th of 7 values)” value stood at 0.5 µM; the “IC50, cytotoxicity (MTT) in OVCAR-3 cells, increasing incubation time (7th of 7 values)” value was found to be 0.5 µM; the “IC50, cytotoxicity (MTT) in SKOV-3 cells, 24 hours incubation (cells without functional LHRH receptors; receptor-negative control)” value came out at 11.5 µM.
